Substrate in series [1]: N[C@@H](Cc1ccc(O)cc1)C(=O)O
Put plainly: HPLC of product (L-DOPA), Hill fit. The class given is biochemical, Arabidopsis thaliana. As to conditions: H2O2 co-substrate, ascorbate 4 mM, sodium phosphate pH 6, 30 °C, hemin reconstituted.

Substrate in series [2]: O=C(O)/C=C/c1ccc(O)cc1
Put plainly: HPLC of product, Hill fit. The class given is biochemical, Arabidopsis thaliana. The following applies: H2O2 co-substrate, ascorbate 4 mM, sodium phosphate pH 6, 30 °C, hemin reconstituted.

Substrate in series [3]: O=C1O[C@H]([C@@H](O)CO)C(O)=C1O
Put plainly: purified protein. The following applies: H2O2 co-substrate, sodium phosphate pH 6, hemin reconstituted.

B1: Arabidopsis C3H (4-coumarate 3-hydroxylase; cytosolic ascorbate peroxidase APX1) (Arabidopsis thaliana) (protein)
chain: MTKNYPTVSEDYKKAVEKCRRKLRGLIAEKNCAPIMVRLAWHSAGTFDCQSRTGGPFGTMRFDAEQAHGANSGIHIALRLLDPIREQFPTISFADFHQLAGVVAVEVTGGPDIPFHPGREDKPQPPPEGRLPDATKGCDHLRDVFAKQMGLSDKDIVALSGAHTLGRCHKDRSGFEGAWTSNPLIFDNSYFKELLSGEKEGLLQLVSDKALLDDPVFRPLVEKYAADEDAFFADYAEAHMKLSELGFADA
notes: full-length cDNA in pDEST17, N-terminal 6xHis tag kept, E. coli Rosetta, Ni-NTA purified, hemin reconstituted
As to B1, the K0.5 in series [1] came to 653 ± 127 µM; in series [2], 708 ± 154 µM; in series [3] it was 299 ± 63 µM. Besides, the kcat is given as 599 s–1 in series [1], 492 s–1 in series [2] and 181 s–1 in series [3].

(Values after paper PMC6491607, “4-Coumarate 3-hydroxylase in the lignin biosynthesis pathway is a cytosolic ascorbate peroxidase” (Nature Communications, 2019).)
